Each block holds one molecule with its values, some of them ahead of it.
How the values were obtained:
citrate synthase [1] = target: T1, citrate synthase (UniProt P00889)
T1 sequence: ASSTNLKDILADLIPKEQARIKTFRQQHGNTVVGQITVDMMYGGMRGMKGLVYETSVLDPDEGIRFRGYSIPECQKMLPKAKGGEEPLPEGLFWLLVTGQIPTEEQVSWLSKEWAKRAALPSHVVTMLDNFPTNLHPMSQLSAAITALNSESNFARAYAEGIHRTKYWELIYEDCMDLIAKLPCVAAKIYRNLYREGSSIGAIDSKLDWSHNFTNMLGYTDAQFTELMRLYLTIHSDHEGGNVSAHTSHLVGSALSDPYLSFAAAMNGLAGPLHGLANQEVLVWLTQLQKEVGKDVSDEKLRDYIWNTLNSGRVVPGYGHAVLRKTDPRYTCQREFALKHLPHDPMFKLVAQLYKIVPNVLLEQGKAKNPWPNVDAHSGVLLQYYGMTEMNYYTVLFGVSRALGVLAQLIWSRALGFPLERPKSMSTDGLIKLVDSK

citrate synthase [2] = target: T1, citrate synthase; remark: listed apart in the source

differential centrifugation after the light scatter assay: per cent of CS in the pellet (citrate synthase [1]): 4%
Molecule: Hsp110^ΔSBDβ (from UniProt Q9VUC1 1-804) (natural protein)

suppression of aggregation of chemically denatured CS, light scattering at 320 nm, chaperone to substrate 1:1, 2:1 and 4:1 (citrate synthase [2]): 50%
B1: Drosophila melanogaster Hsp110 (Hsc70cb-encoded protein) (natural protein)
chain: MSVIGIDFGNESCYVAAARSGGIETLANDYSLRATPSFVAFDGKKRIIGVAAKNQQVTNMKNTVGGFKRLLGRKFNDPHVQHELTSIPARVEARGDGSIGIKVNYLGEDQHFGPEQLTAMLFTKLKETSAAAMQTQVNDCVIACPVFFTNAERKALLDAAQIAGLNVLRLMNETTATALAYGFYKNDLFEDKPRNVIFVDFGHSSLQASACAFTKGKLKMLASTWDQIGGRDIDLALGDYFAKEFQERYKINAKTNARANLRLLTEIEKLKKQMSANSTKLPLNIECFLDDIDVSSSMQRSQMEELCAPVLQRVEQTFKRLLAESKLQLDDIHSVEIVGGSSRIPSVKQLIEQVFNKPASTTLNQDEAVSRGAALQCAIMSPAVRVREFGVTDIQNYAVKVLWDSEGSAAPGEIEIFPQYHASPFSRLLTINRKGPFNVSIVYGQQVPYPDQTIGVWKVKDVKPTERGEGQDVKLKVRINNNGIVLISSATLVEKKEAEEAAAAAEQAASEEKPGDQTNNTGEPADGQQEGADKKKKASKATELPLECTTHGFSPVDLSNYTQQESKMIGNDQKETERIDAKNALEEFVYDMRNKLQGGPFERYVVEAEREKIVSQLNDLENWLYEDGEDCERDIYTSRLQALHQKTDPIKLRASDYEQGPAAFDELKNSIAIARLAVAEFRKGVPKYDHLTETEFINISETADKAQSWLDANLPKFTQSPRTADSPVQISAVRQEVQTLNSCVSSVINRAKPKPTPAKTATPPKDEANAEQNGGEPAANSGDKMDVDNNGQSAAGNDPSMEVE
